# Measurements from patent US20080058263A1 (published 2008).
# Changes are numbered by the printed parent chain.
# T1: VEGFR-3-Fc (UniProt P35916 25-328)
# T1 construct: domain: first three Ig domains; conditioned supernatant of 293T cells; also called VEGFR-3-Fc fusion protein; not shown: Fc fragment of the pIg vector
# T1 sequence (looked up): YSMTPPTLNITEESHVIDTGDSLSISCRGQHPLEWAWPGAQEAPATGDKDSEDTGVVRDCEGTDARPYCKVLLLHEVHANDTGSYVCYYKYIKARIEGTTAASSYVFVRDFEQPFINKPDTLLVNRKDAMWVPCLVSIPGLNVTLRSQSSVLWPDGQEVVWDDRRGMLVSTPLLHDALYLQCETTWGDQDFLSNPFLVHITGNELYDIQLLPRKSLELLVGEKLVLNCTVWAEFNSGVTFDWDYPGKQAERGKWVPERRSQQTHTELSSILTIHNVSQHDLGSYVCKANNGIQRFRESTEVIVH
# B1: 22-16 (ligand)
# chain: AHYNTEILKSIDNEWRKTQCMPREVCIDVGKEFGVATNTFFKPPCVSVYRCGGCCNSEGLQCMNTSTSYLSKTLFEITVPLSQGPKPVTISFANHTSCRCMSKLDLVFEQKLISEEDLNSAVDHHHHHH
# B2: 84-1 (ligand)
# chain: AHYNTEILKFMDVYQRSYCHPIETLVDIFQEFGVATNTFFKPSCVPLMRCGGCCNDEGLECVPTEESNITMQIMRIKPHQGQHIGEMSFLQHNKCECRPKKD
# B3: 84-5 (ligand)
# chain: B2 chain with L90A, Q91N, N93T, K94S, E96R, R98M, P99S, K101L
# B4: 84-3 (ligand)
# chain: B2 chain with D56S, E60Q
# B5: 72-10 (ligand)
# chain: GQNHHEVVKSIDNEWRKTQCMPREVCIDVGKEFGVATNTFFKPPCVSVYRCGGCCNDEGLECMNTSTSYLSKTLFEITVPLSQGPKPVTISFLQHNKCECRPKKD
# B6: 72-12 (ligand)
# chain: B5 chain with D57S, E61Q
# B7: 11-9 (ligand)
# chain: GQNHHEVVKFMDVYQRSYCHPIETLVDIFQEYPDEIEYIFKPSCVPLMRCGGCCNDEGLECVPTEESNITMQIMRITVPLSQGPKPVTISFLQHNKCECRPKKD
# B8: 82-9 (ligand)
# chain: AHYNTEILKFMDVYQRSYCHPIETLVDIFQEFGVATNTFFKPPCVSVYRCGGCCNDEGLECVPTEESNITMQIMRITVPLSQGPKPVTISFLQHNKCECRPKKDL
# notes: clone entry
# B9: 84-9 (ligand)
# chain: B8 chain with P43S, S46P, V47L, Y48M
# notes: clone entry
# B10: 14-9 (ligand)
# chain: GQNHHEVVKFMDVYQRSYCHPIETLVDIFQEFGVATNTFFKPSCVPLMRCGGCCNDEGLECVPTEESNITMQIMRITVPLSQGPKPVTISFLQHNKCECRPKKDL
# notes: clone entry
# B11: 84-11 (ligand)
# chain: B8 chain with P43S, S46P, V47L, Y48M, D56S, E60Q
# notes: clone entry
# B12: 82-11 (ligand)
# chain: B8 chain with D56S, E60Q
# notes: clone entry
# B13: 82-13 (ligand)
# chain: B8 chain with L92A, Q93N, N95T, K96S, E98R, R100M, P101S, K103L
# notes: clone entry
# B14: 12-5 (ligand)
# chain: GQNHHEVVKFMDVYQRSYCHPIETLVDIFQEFGVATNTFFKPPCVSVYRCGGCCNDEGLECVPTEESNITMQIMRIKPHQGQHIGEMSFANHTSCRCMSKLDLVF
# B15: 82-7 (ligand)
# chain: B14 chain with G1A, Q2H, N3Y, H4N, H5T, V7I, V8L, D56S, E60Q
# notes: clone entry
# B16: 12-1 (ligand)
# chain: B14 chain with A90L, N91Q, T93N, S94K, R96E, M98R, S99P, L101K
# B17: 22-3 (ligand)
# chain: AHYNTEILKSIDNEWRKTQCMPREVCIDVGKEFGVATNTFFKPPCVSVYRCGGCCNSEGLQCVPTEESNITMQIMRIKPHQGQHIGEMSFLQHNKCECRPKKD
# B18: 11-3 (ligand)
# chain: GQNHHEVVKFMDVYQRSYCHPIETLVDIFQEYPDEIEYIFKPSCVPLMRCGGCCNSEGLQCVPTEESNITMQIMRIKPHQGQHIGEMSFLQHNKCECRPKKD
# B19: 11-5 (ligand)
# chain: B18 chain with S56D, Q60E, L90A, Q91N, N93T, K94S, E96R, R98M, P99S, K101L
# B20: 11-7 (ligand)
# chain: B18 chain with L90A, Q91N, N93T, K94S, E96R, R98M, P99S, K101L
# B21: 11-1 (ligand)
# chain: GQNHHEVVKFMDVYQRSYCHPIETLVDIFQEYPDEIEYIFKPSCVPLMRCGGCCNDEGLECVPTEESNITMQIMRIKPHQGQHIGEMSFLQHNKCECRPKKDLVFEQKLISEEDLNSAVDHHHHHH
# B22: 82-15 (ligand)
# chain: AHYNTEILKFMDVYQRSYCHPIETLVDIFQEFGVATNTFFKPPCVSVYRCGGCCNSEGLQCVPTEESNITMQIMRITVPLSQGPKPVTISFANHTSCRCMSKLD
# B23: 72-2 (ligand)
# chain: GQNHHEVVKSIDNEWRKTQCMPREVCIDVGKEFGVATNTFFKPPCVSVYRCGGCCNDEGLECMNTSTSYLSKTLFEIKPHQGQHIGEMSFLQHNKCECRPKKD
# B24: 22-4 (ligand)
# chain: B23 chain with G1A, Q2H, N3Y, H4N, H5T, V7I, V8L, D57S, E61Q
# B25: 72-8 (ligand)
# chain: B23 chain with D57S, E61Q, L91A, Q92N, N94T, K95S, E97R, R99M, P100S, K102L
# B26: 72-4 (ligand)
# chain: B23 chain with D57S, E61Q
# B27: 72-6 (ligand)
# chain: B23 chain with L91A, Q92N, N94T, K95S, E97R, R99M, P100S, K102L
# B28: 82-14 (ligand)
# chain: AHYNTEILKFMDVYQRSYCHPIETLVDIFQEFGVATNTFFKPPCVSVYRCGGCCNDEGLECMNTSTSYLSKTLFEITVPLSQGPKPVTISFANHTSCRCMSKLD
# B29: 82-16 (ligand)
# chain: B28 chain with D56S, E60Q
# Molecular target: T2, VEGFR-1-Fc (UniProt P17948 27-338)
# T2 construct: domain: first three Ig domains; expressed in Drosophila S2 cells, purified on Protein A sepharose; also called VEGFR-1-Fc fusion protein; not shown: Fc fragment from the Signal-pIgPlus vector
# Assay: receptor-Fc IP
# Method in brief: (§1)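 fusion protein at 400 ng/ml in an IP mix (PBS, 1.5% BSA, 0.06% Tween 20, 3 μg/ml heparin) was combined with sample supernatant at a 1:2 ratio. Bound ligand captured by immunoprecipitation with pentahistidine antibody.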
# T2 sequence (P17948 27-338): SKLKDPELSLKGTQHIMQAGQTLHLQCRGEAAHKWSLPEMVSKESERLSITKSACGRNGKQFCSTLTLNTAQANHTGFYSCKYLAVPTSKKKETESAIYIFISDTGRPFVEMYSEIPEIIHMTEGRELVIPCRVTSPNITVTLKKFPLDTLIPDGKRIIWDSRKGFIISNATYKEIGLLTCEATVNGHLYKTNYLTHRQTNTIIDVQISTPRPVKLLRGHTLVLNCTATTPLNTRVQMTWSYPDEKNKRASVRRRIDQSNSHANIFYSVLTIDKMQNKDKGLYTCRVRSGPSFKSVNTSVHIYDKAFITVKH
row,binding result,Binder
1,no binding,B1
2,binds,B2
3,binds,B3
4,binds,B4
5,no binding,B5
6,no binding,B6
7,binds,B7
8,binds,B8
9,binds,B9
10,binds,B10
11,binds,B11
12,binds,B12
13,binds,B13
14,binds,B14
15,binds,B15
16,binds,B16
17,no binding,B17
18,binds,B18
19,binds,B19
20,binds,B20
21,binds,B21
22,no binding,B22
23,no binding,B23
24,no binding,B24
25,no binding,B25
26,no binding,B26
27,no binding,B27
28,no binding,B28
29,no binding,B29

# Molecular target: T3, VEGFR-2-Fc (UniProt P35968 20-322)
# T3 construct: domain: first 3 Ig domains; conditioned supernatant of 293T cells; also called VEGFR-2-Fc fusion protein; not shown: Fc fragment of the pIg vector
# Assay: receptor-Fc IP
# Method in brief: as §1
# T3 sequence (P35968 20-322): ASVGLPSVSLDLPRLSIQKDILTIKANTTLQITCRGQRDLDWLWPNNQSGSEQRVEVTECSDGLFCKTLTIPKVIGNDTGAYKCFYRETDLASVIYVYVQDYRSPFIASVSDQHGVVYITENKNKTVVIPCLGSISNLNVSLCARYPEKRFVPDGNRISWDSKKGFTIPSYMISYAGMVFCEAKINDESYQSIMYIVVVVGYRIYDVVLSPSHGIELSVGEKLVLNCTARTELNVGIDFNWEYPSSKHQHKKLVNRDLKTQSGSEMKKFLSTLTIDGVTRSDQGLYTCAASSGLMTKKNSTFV
row,binding result,Binder
1,binds,B1
2,no binding,B2
3,no binding,B3
4,binds,B4
5,binds,B5
6,binds,B6
7,no binding,B7
8,binds,B8
9,binds,B9
10,binds,B10
11,binds,B11
12,binds,B12
13,no binding,B13
14,no binding,B14
15,binds,B15
16,binds,B16
17,no binding,B17
18,binds,B18
19,binds,B19
20,binds,B20
21,binds,B21
22,binds,B22
23,binds,B23
24,binds,B24
25,binds,B25
26,binds,B26
27,no binding,B27
28,no binding,B28
29,no binding,B29

# Molecular target: T1, VEGFR-3-Fc
# Assay: receptor-Fc IP
# Method in brief: as §1
row,binding result,Binder
1,binds,B1
2,no binding,B2
3,no binding,B3
4,no binding,B4
5,binds,B5
6,binds,B6
7,no binding,B7
8,binds,B8
9,binds,B9
10,binds,B10
11,binds,B11
12,binds,B12
13,binds,B13
14,no binding,B14
15,binds,B15
16,binds,B16
17,binds,B17
18,no binding,B18
19,no binding,B19
20,no binding,B20
21,no binding,B21
22,binds,B22
23,binds,B23
24,binds,B24
25,binds,B25
26,binds,B26
27,binds,B27
28,binds,B28
29,binds,B29
